Data from the nanobody polyreactivity screen of Harvey et al. (2022).

Assay: yeast display, Sf9 membrane polyspecificity reagent, FACS + sequencing; frameworks hold sequencing errors
Outline: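 After 36–48 hours of galactose induction, yeast (Saccharomyces cerevisiae BJ5465) displaying a synthetic nanobody library were stained at 4 °C for 1 hour with 10% biotinylated, detergent-solubilized Sf9 membrane reagent. Streptavidin microbeads enriched the stained cells before FACS sorting into low and high (top ~1%) gates on anti-HA and streptavidin fluorescence. Each clone's polyreactivity label reflects its gate of origin.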

Row | Sequence | polyreactivity (PSR sort gate)
1 | QVQLVESGGGLVQAGGSLRLSCAASGIIFSEYAMGWSRQAPGKERELVAAITKSGGSTYYADSVKGRFTISRDNAKNTVYLQMNSLKPEDTAVYYCAKKTPYIRGKDNYWGQGTQVNVSS | low polyreactivity
2 | QVHLVESGGGLVQAGGSLRLSCSASGSIFGKYAMGWYRQAPGKERELVAAISWSGTSTYYADSVKGRFTISRDNAKNTVYLQMNSLKPEDTAVYYCAAESRVYGYNYWGQGTQVTVSS | high polyreactivity
3 | QVQLVESGGGLVQAGGSLRLSCAASGSTFTYNAMGWYRQAPGKERELVASISSGTTTYYADSVKGRFTISRDNAKNTVYLQMNSLKPDDTAVYYCNADIYTWFQIGGYQYDYWGQGTQVTVSS | low polyreactivity
4 | QVQLVESGGGLVQAGGSLRLSCAASGITFEGYAMGWYRQAPGKERELVAAIRSSGTSTYYADSVKGRFTISRDNAKNTVYLQMYSLKPEDTAVYYCNRARSSSRYDYWGQGTQVTVSS | low polyreactivity
5 | QVQLVESGGGLVQAGGSLRLSCAASGFTFLIYAMGWYRQAPGKERELVAAITWRGSGTYYADSVKGRFTLSRDNAKNTVYLQMNSLKPEDTAVYYCAARTARRTFDYWGQGTQVTVSS | low polyreactivity
6 | QVQLVESGGGLVQAGGSLRLSCAASGRIFSRYAMGWYRQAPGKERELVAAINKSGGSTYYADSVKGRFTISRDNAKNTVYLQMNSLKPEDTAVYYCATDDPVYDYDYWGQGTQVTVSS | high polyreactivity
7 | QFQLVESGGGLVQAGGSLRLSCAASGSTFRRNTMGWYRQAPGKEREFVAAISRRGGSTYYADSVKGRFTISRDNAKNTVYLQMNRLKPEDTAVYYCAAPGLSRLYNVYYWPYDYWGQGTQVTVSS | high polyreactivity
8 | QVQLVESGGGLVQAGGSLLLSCAASGFTFSYYAMGWYRPAPGKERELVAAINWNGGSTYYADSVKGRFTISRDNAKNTVYLQMNSLKPEDTAVYYCNARQSYRYSQHGYWGQGTQLTVSS | high polyreactivity
9 | QEQLHESGGGLVQAGGSLRLSCAASGTISYAGPIGWDRQAPGKAREFVAGIGVGSNTNYADSVKGRFTIIRDNAKNTVYLQMNSLKPEDTAVYYCAVGGYAPLGRPYWGQGTQVTVSS | low polyreactivity
10 | QVQLVESGGGLFQAGGSLRLSCAATGSIFDYYAMGWYRQAPGKERELDGTITSGVSTYYADSVKGRFTISRDNAKNTVYLQMISLKPEDTAVYYCARDYAKSQDLYKYDYWGQGTQVTGSS | low polyreactivity
11 | QVQLVESGGGLVQAGGSLRLSCAASGSIFSGYTMGWYRQAPGKERELVAAITQRGTRTYYADSVKGRFTISRDNAKNTVYLQMNSLKPEDTAVYYCAADSVVVGSPGNDYWGQGTQVTVSS | high polyreactivity
12 | QVQLQESGVGLVQAGGCLSCTASCTIFGQGDMCWYRQAPGKERELVATINDGASTYYADSVKGRFTISRDKAKNTVYLQMKSLKPDVTAVYYCAVFTDITTYFGYWGQGTQVTVSS | low polyreactivity
13 | QVQLVESGGGLVQAGGSLRLSCAASGSIFPGYAMGWYRQAPGKERELVATITWSASETYYADSVKGRFTISRDNAKYTVYLQMNSLKPEDTAVYYCNAEVYELFVVYSALDYWGQGTQVTVSS | low polyreactivity
14 | QLQLVESGAGLVQAGGSLRLSCAASGNIFRKNAMGRSRQAPGKERELVAAISRRGGNSYYADSVKGRFTISRDNAKNTVYLQMNSLKPEDTAVYYCAADWSPTAASDYWGQGTQVTVSS | high polyreactivity
15 | QVQLVESGGGLVQAGGSLRLSCAASGIIFEYYDRGWYRQAPGKERELVAAIDSGGSTYYADSVKGRFTISRDNAKNTVYLQMNSLKPEDTAVYYCAAETVRYDWGESPAALFDYWGQGTQVTVSS | low polyreactivity
16 | QVQLVESGGGLVPAGGSLRLSCAASGRIFPQYAMGWYRQAPGKERELVAAISYRGGSTYYADSVKGRFTISRDNAKNTVYSQMNSLKPEDTAVYYCAAKRYNYWGQGTQVTVST | high polyreactivity
17 | QVQLVETGGGLVQAGGSLRLSCAASGITFASYAMGWYRHAPGKEREFVATITTGGTNTYYADSVKGRFTLSRDNAKKTVYLQMNSQKPEDTAVYYCAADSTPYVLSGNYDYWGQGTQVTVSS | low polyreactivity
18 | QVQHVESGGGLVQAGGSLRLSCGASGRIFRRYAMGWYSLAAVKEREFVAAISYGGGSTYYADSVKGRFTISRDNAKNTVYLQMNSLKPEDSAVYYCNADVPKSLLLYYPWGYGYWGQGTQVTVSS | low polyreactivity
19 | QVQLVESGGGLVQAGGSLRLSCAASGSIFPRNAMGWYRQAPGKERELVAGISSGGSTNYADSVKGRFTISRDNAKNTVYLQMNSLKPEDTAVYYCAARQWIRNLGFGYSIYYYWGLGTQVTVSS | high polyreactivity
20 | QVQLVESGGGLVQAGGSLRLSCAASGGTFITNAMGWYRKAPGKERELVAAITSGGRTTYADSVKGRFTISRDNAKNTVDLQMNSLKPVDTAVYYCAADHVYSSTYFLDDYWGQGTQVTVSS | low polyreactivity
21 | QDQLEESGGGLVQAGGSLRLSCAASGLTFIQYALGWYRQAPGKERELVAAINSGASTRYADSEKGRFTISRDNAMNTVYLQMNSLKPEDTAVYYCNARLRRYTNRYYKYYYWGQGTLVTVSS | high polyreactivity
22 | QVQLVESGGGLVQAGGSLRLSCAASGSIFYRNAMGWYRQAPGKERELVATITVNGGRTYYADSVKGRFTISRDNANNTVYLQMNSLKPEDTAVYDCAKDVHRWDPYDYWGQGTQVTVSS | low polyreactivity

Row | Sequence | polyreactivity (PSR sort gate)
23 | QVQLVESGGGLVLAGGSLRLSCAASGIIFYRNAMGWYRQAPGKERELVAAITSSGGRTYYADSVKGRFTISRDNAKNTVYLQMNSLKPEDTAVYYCAATRMYWKIFYGDGDYWGQGTQVTVST | high polyreactivity
24 | QVQLVESGGGLVQAGGSLRLSCAASGLIFSRNAMGWYRQAPGKERELVAAISGGGGSTYYADSVKGRFTISRDNAKNNVYLQMHSLKQEATAVYDCAAKGYWWRTPWIATYDYWGQGTQVTVSS | high polyreactivity
25 | QVQLVESGGGLVQAGGSLRLSCAASGSIFPQYAMGWYRQAPGKERELVAAISSSGGRTYYADSVKGRFTISRDNAKNTVYLQMNSLKPEDTAVYYCAADGSYAIGGYGYWGQGTQVTVSS | high polyreactivity
26 | QVQLVESGGGLVQAGGSLRLSCAASGSIFWVYVLGWYRQAPGKERELVAAITNGGSTDYADSVKGRFTISRDNAKNTVYLQMNSLKPEDTAVYYCAKRSTIWGRILITYDYWGQGTQVTVSS | low polyreactivity
27 | QVQLVESGGGLVQAGGSLRLSCAASGIIFTGYTMGWYRQAPGKERELVAAITWRGGSTYYADSVKGRFTISRDNAKNTVYLQMNSLKPEDTAVYYCAAEGWYSWDDDYWGQGTQVTVSS | low polyreactivity
28 | QVQLVESGGGLVQAGGSLRLSCAASGRTFYYYAMGWYRLAPGKERELVAAISNRGGSTYYADSVKGRFTISRDNAKNTVYLQMNCLKPEDTAVYYCARRYSYLYTYGSWGQGPQVTVSS | high polyreactivity
29 | QVQLVESGGGLVQAGGSLRLSCAASGRIFYGNTMGWYRPAPGKERELVAAITGSGTSTYYADSVKGRFTISRDNAKNTVYLQMNSLKPEDTAVYYCNADRPVYVDYINGGYGYWGQGTQVTVSS | low polyreactivity
30 | QVQLVESGGGLEQAGGSLRLSCAASGRTLPIYAMGWYIQAPGKERELVAAISWSGASTYADSVKGRFTISRDNAKNTVYLQMTSLKPEETAVYYCAAYYVYWYSSYGYGYWGQGTQVTVSS | low polyreactivity
31 | QVQLVESGGGLVQAGSSLRLSCAASGSTLRTNAMGWYRQAPGKEREFVADISKRGGRTYYADSVKGRFTISRDNAKNTVYLQMNSLKPEDTAVYYCAKLVSLAGRIYGYWGQGTQVTVSS | high polyreactivity
32 | QVQLVESGGGLVQAGGSLRLSCAASGLIFRGYAMGWYIQAPGKERELVAAISKSGGSTYYADSVKGRFTISRDNAKNTVYLQMNSLKPEDTAVYYCNTDYDWKYFLSSQYDYWGQGTQVTVSS | high polyreactivity
33 | QVQLVESGGGLVQAGGSLRLSCAASGRIFRHYAMGWYRQAPGKERELFAAIDWDGDTTYYADSVKGRFTISRDNAKNTVYLQMNSLKPEDNAVSYCAAEFYSLGKAIYEYWGQGTQVTVSS | high polyreactivity
34 | QGQLVDSGGGLVQAGGSLRLSCAASGSTFKNNAMGWYRQAPGKEREFVASISKRGGSTYYADSVKGRFTISRDNAKNTVYLQMNSMKPEDTAVYYCAKTYWSYGLSHGDYGEFDYWGQGTQVTVSS | high polyreactivity
35 | QVQLVESGGGLVQAGGSLRLSCAASGSTFSAYTMGWYRQAPGKERELVARITNGGSTYYADSVKGRFTISRDNAKNTVYLQMNSLKPEDTAVYYCNVQYYVSYWRSYDYWGQGTQVTVSS | high polyreactivity
36 | QVQLVESGGGLVQAGGSLRLSCAASGFTFIPNAMGWYRQAPGKERELVAAISTGGSTYYADSVKGRFTISRDNAKNTVYLQMNSLKPEDTAVYYCAAGILVLKLYFSSYDYWGQGTEVTVSS | low polyreactivity
37 | QVQLVESGGGLVQAGGSLRLSCAASGSIFDYNAMGWYRQAPGKERELVAAITSGTSTNYADSVKGRFTISRDNAKNTVYLQMNSLKPEDTAVYYCAADPVWAYDYWGQGTQVTVSS | low polyreactivity
38 | QVQLVESGGGLVQAGGSLRLSCAASGSTFGGNAMGWYRQAPGKERELVAAITVGGDSPYYADSVKGRYTISRDNAKNTVYLQMNSLKPEDTADYYCAARHYWWYDYWGQGTQVTVSS | low polyreactivity
39 | QDQLVESGGGLVQAGGSLRLSCAASGRLFSQYAMGWYRQAPGKERELVAAISWRTGSTYYADSVKGRFTISRDNAKNTVYLQMNSLKPEDTAVYYCSAANAGRYPYNYSGQGTQVTVSS | high polyreactivity
40 | QVQLVESGGGLVQAGGSLSLSSAASGFIFHTYAMRWYRQAPGKERELVASITWRGGRTYYADSVKGRFTISRDNAKNTVYLQLNSLNPVYTAVYYCAAVTFSYDGYDYWGQGTQVTVSS | low polyreactivity
41 | QVQLVESGGGLVQAGGSLRLSCAAYGSTFVLYGMGWYRQAPGKEWELVAAISTSGGRTYYADSEKGRFTISRDNAKNSVSLQMNSLKPEDTAVYYCAALTYVAHYDEYWGQGTQVTVSS | low polyreactivity
42 | QVQLVESGGGLVQAGGSLRLSCAASGSTLLFYAMGWYRQAPGKEREFLATITFRGGSTYYADSVKGRFTISRDNAKNTVYLQMNSLKPEDTAVYYCNAGSRRGYYRSRPGGYCGQGTQVTVSS | high polyreactivity
43 | QVQLVESGGGLVQAGGSLRLSCAASGRIFPANAMGWYRQAPWKERELVAAISSTGGSTYYADSVKGRFTISRDNAKNSVYLQMKSLKPEDTAVYYCAKVHYRWPRVTWPNVWWSFEYWGQGTQVSVSS | low polyreactivity
